Source: US20240093191A1, “COMPOSITIONS AND METHODS FOR TREATING DISEASE ASSOCIATED WITH DUX4 OVEREXPRESSION” (RESEARCH INSTITUTE AT NATIONWIDE CHILDREN'S HOSPITAL, priority 2021, published 2024)

Test system: DUX4-FL (DUX4 ORF + 3'UTR, RenLuc-DUX4-FL)
Experiment: Dual-luciferase assay, RenLuc-DUX4-FL reporter co-transfected with miRNA plasmids in HEK293 cells
Format: cell-based, human
From the text: FIG. 1A. Dual-luciferase assay to test the ability of U6.mir-675 to target DUX4. Shown here is the mir-675 expression plasmid used in this study. In this construct, the RNA polymerase III U6 promoter (U6p) controls the expression of mir-675. A terminal signal formed of a stretch of six T nucleotides allows the termination of transcription. On the right, the secondary structure of the mir-675 along with its 5′ and 3′ end flanking sequences (Boxed) is shown. At the 5′ end, the flanking sequence is of 40 nucleotides long and at the 3′ end, the flanking sequence is of 47 nucleotides long starting from the nucleotide at position 114. U6.mir-675 was tested to target DUX4 using the dual-luciferase assay. To do this, DUX4 was cloned in the RenLuc-DUX4-FL expression plasmid (FIG. 1A), i.e., DUX4-FL (DUX4 ORF without V5 tag+3′UTR) was PCR amplified using CMV.DUX4-FLΔV5 as template with the following primers: forward: 5′ […] 3′ (SEQ ID NO: 125), reverse: 5′ […] 3′ (SEQ ID NO: 126). The PCR product was then cloned into a previously designed RenLuc SD5 mutant plasmid using XhoI/SpeI restriction sites and the RenLuc.SD5 mutant-DUX4 3′UTR plasmid backbone. The Renilla luciferase gene has a splicing donor mutation (*SID5) that prevents the alternative splicing of the DUX4-FL mRNA (Ansseau et al. (2015) PLoS One, 10, e0118813). The dual-luciferase assay was performed by co-transfecting the RenLuc-DUX4-FL and U6.mir-675 expression plasmids into the human embryonic kidney HEK293 cells. 48 hours after transfection, both the Renilla and Firefly luciferase activities were measured. The latter was used to normalize for Renilla luciferase activity. The non-targeting RenLuc control backbone plasmid (RenLuc) was co-transfected with U6.mir-675 and the RenLuc-DUX4-FL co-transfected with U6.milacZ as negative control reactions. In the other reactions, mir-675 reduced the relative Renilla luciferase activity by 24±3% (P<0.0001, ANOVA, N=3), 28±2% (P<0.0001, ANOVA, N=3) and 33±3% (P<0.0001, ANOVA, N=3) at a molarity ratio U6.mir-675: RenLuc-DUX4-FL (n:n) of 10 to 1, 20 to 1 and 40 to 1, respectively. All readings were normalized to the U6.milacZ (negative control). Six replicate data were averaged per experiment and individual experiments were performed in triplicate (N=3). Results were reported as the average relative Renilla luciferase activity±SEM for all combined experiments. […] A representative western blot gel and the quantification results of three independent western blot replicates (N=3) performed on 15 μg of total protein extracts collected from HEK293 cells 24 hours after co-transfection with the AAV.CMV.DUX4-FL and the U6.mir-675 or the human long non-coding H19 expression plasmid (CMV.H19) is shown here. […]

B1: U6.mir-675: U6 promoter-driven mir-675 expression plasmid with 40 nt 5' and 47 nt 3' flanking sequences (nucleic acid)
DNA: GACGCCGCCATCTCTAGGCCCGCGCCGGCCCCCTCGCACAGACTTGTGGGAGAAGCTCGGCTACTCCCCTGCCCCGGTTAATTTGCATATAATATTTCCTAGTAACTATAGAGGCTTAATGTGCGATAAAAGACAGATAATCTGTTCTTTTTAATACTAGCTACATTTTACATGATAGGCTTGGATTTCTATAAGAGATACAAATACTAAATTATTATTTTAAAAAACAGCACAAAAGGAAACTCACCCTAACTGTAAAGTAATTGTGTGTTTTGAGACTATAAATATCCCTTGGAGAAAAGCCTTGTTTGCGTTTAGTGAACCGTCAGATGGTACCGTTTAAACTCGAGCCCAGGGTCTGGTGCGGAGAGGGCCCACAGTGGACTTGGTGACGCTGTATGCCCTCACCGCTCAGCCCCTGGGACTAGAGCGGCCGCCACAGCGGGGAGATCCAGACATGATAAGATACATTTTTT
- reduction of relative Renilla luciferase activity (miRNA:RenLuc-DUX4-FL molar ratio 10 to 1, 48 h, normalized to U6.milacZ): 24±3%
- reduction of relative Renilla luciferase activity (miRNA:RenLuc-DUX4-FL molar ratio 20 to 1, 48 h, normalized to U6.milacZ): 28±2%
- reduction of relative Renilla luciferase activity (miRNA:RenLuc-DUX4-FL molar ratio 40 to 1, normalized to milacZ): 33±3%
